Results from patent US20240003871A1, “IPSC-DERIVED ASTROCYTES AND METHODS OF USE THEREOF” (FUJIFILM Cellular Dynamics, Inc., priority 2022, published 2024).

Test system: Astrocytes
Assay: Luminex assay of proteins secreted by astrocytes after cytokine stimulation
Assay type: cell-based, human
Conditions: stimulation in basal medium for 24 hours; average of four lots
Experimental: FIGS. 8A-8J: Astrocytes from four lots were thawed and cultured for 7 days in Astro 3 media, before stimulation in basal medium for 24 hours. Supernatant was collected and assayed using a custom Luminex assay from R&D on the FLEXMAP 3D instrument, according to manufacturer's instructions. Each condition was run in duplicate, with the average of all four lots compared to the control (unstimulated) condition to calculate fold change. Error bars are +/−1 SEM. […] The combination of IFN-gamma with TNF-alpha produced the highest fold-change over control, with over 84-fold secretion of IL-1ra compared to control. IL-1ra binds to cell surface IL-1 receptors, blocking binding of pro-inflammatory IL-1alpha and IL-1beta. […] TNF-alpha combined with either IL-1alpha or IL-1beta increased IL-6 secretion by over 3300-fold compared to control. IL-6 attracts pro-inflammatory T cells and promotes demyelination. […] TNF-alpha combined with either IL-1alpha or IL-1beta increased IL-8 secretion by over 12,000-fold compared to control. IL-8/CXCL8 is secreted by astrocytes to attract pro-inflammatory immune cells after insults. This analyte also plays a role in recruitment and differentiation of oligodendrocyte precursor cells (OPCs) to promote remyelination. […] TNF-alpha alone, or combined with IL-1alpha, IL-1beta or IFN-gamma increased IL-10 secretion by over 1000-fold compared to control. IL-10 is secreted by astrocytes to reduce iNos activity and reduce astrogliosis. […] TNF-alpha alone, or combined with IL-1alpha, IL-1beta or IFN-gamma increased CCL5/RANTES secretion by over 2500-fold compared to control. CCL5/RANTES controls the movements of peripheral immune cells. […] TNF-alpha combined with IL-1alpha or IL-1beta increased CCL7 secretion by over 15,000-fold compared to control. CCL7 is important for astrocyte-microglia interactions and induces microglia activation. […] Stimulation with IL-1alpha or TNF-alpha alone increased CCL20 secretion by over 18-fold over unstimulated control. TNF-alpha combined with IL-1alpha, IL-1beta or IFN-gamma increased CCL20 secretion by over 100-fold compared to control. CCL20 is secreted by astrocytes in response to pro-inflammatory stimuli and attracts T-cells, B-cells and DCs. […] Stimulation with IL-1alpha increased CXCL1 secretion by 84-fold over unstimulated control. TNF-alpha combined with IL-1alpha or IL-1beta increased CXCL1 secretion by over 450-fold compared to control. CXCL1 is secreted by astrocytes to recruit neutrophils to the site of infection, and increases BBB permeability. […] CXCL2 activates CXCR2, found on oligodendrocytes and OPCs, which increases OPC proliferation and differentiation. […] CXCL5 is secreted by astrocytes in response to injury and activates microglia, resulting in decreased microglia phagocytosis and inhibition.
Astrocytes from four lots were thawed and cultured for 7 days in Astro 3 media, before stimulation in basal medium for 24 hours. Supernatant was collected and assayed using a custom Luminex assay from R&D on the FLEXMAP 3D instrument, according to manufacturer's instructions. […] The combination of IFN-gamma with TNF-alpha produced the highest fold-change over control, with over 84-fold secretion of IL-1ra compared to control. IL-1ra binds to cell surface IL-1 receptors, blocking binding of pro-inflammatory IL-1alpha and IL-1beta.

Molecule: TNF-alpha
- CCL7 secretion, fold change over unstimulated control: 1184 fold
- IL-1ra secretion, fold change over unstimulated control: three
- IL-8/CXCL8 secretion, fold change over unstimulated control: 898 fold

B1: IFN-gamma: cytokine used to stimulate astrocytes (protein, UniProt P01579 24-161, looked up)
Interferon gamma: QDPYVKEAENLKKYFNAGHSDVADNGTLFLGILKNWKEESDRKIMQSQIVSFYFKLFKNFKDDQSIQKSVETIKEDMNVKFFNSNKKKRDDFEKLTNYSVTDLNVQRKAIHELIQVMAELSPAAKTGKRKRSQMLFRG
- IL-1ra secretion, fold change over unstimulated control: robust secretion
- IL-6 secretion, fold change over unstimulated control: 32 fold
- IL-10 secretion, fold change over unstimulated control: 161 fold

B2: IL-1alpha: pro-inflammatory cytokine used to stimulate astrocytes (protein, UniProt P01583 113-271, looked up)
Interleukin-1 alpha: SAPFSFLSNVKYNFMRIIKYEFILNDALNQSIIRANDQYLTAAALHNLDEAVKFDMGAYKSSKDDAKITVILRISKTQLYVTAQDEDQPVLLKEMPEIPKTITGSETNLLFFWETHGTKNYFTSVAHPNLFIATKQDYWVCLAGGPPSITDFQILENQA
- CCL5/RANTES secretion, fold change over unstimulated control: 156 fold
- CCL7 secretion, fold change over unstimulated control: 2177 fold
- CXCL1 secretion, fold change over unstimulated control: 84 fold
- CXCL2 secretion, fold change over unstimulated control: 379 fold
- CXCL5 secretion, fold change over unstimulated control: 161 fold
- IL-1ra secretion, fold change over unstimulated control: three
- IL-6 secretion, fold change over unstimulated control: over 400 fold
- IL-8/CXCL8 secretion, fold change over unstimulated control: over 3300 fold
- IL-10 secretion, fold change over unstimulated control: over 415 fold
